Where a chain is given by its changes, count along the chain named.
B1: Chimeric VH + VL (antibody, human IgG1, kappa, V domains shown)
VH: EVKLVESGGGLVKPGGSLKLSCAASGFTFSSYGMSWVRQTPEKRLEWVAIISGGGRDIYYLDSVKGRFTISRDNAKNNLYLQMSSLRSEDTAFYYCSSPIYDAYSFAYWGQGTLVTVSA
VL: DIVLVQSPATLSVTPGDSVSLSCRASQTISNNLHWYHQKSHESPRLLIKYASQSISGIPSRFSGSGSGTDFTLSINSVETEDFGMYFCQQSYSWPLTFGAGTNLELKR
notes: also called Parental mouse VH+VL combined with human Fc; parental antibody
B2: VH6 + VL1 (antibody, human IgG1, kappa, V domains shown)
VH: EVQLVESGGGLVQPGGSLRLSCAASGFTFSSYGMSWVRQAPGKRLEWVAIISGGGRDIYYLDSVKGRFTISRDNSKNTLYLQMNSLRAEDTAVYYCSSPIYDAYSFAYWGQGTLVTVSS
VL: EIVMTQSPATLSVSPGERATLSCRASQTISNNLHWYQQKPGQAPRLLIYYASQSISGIPARFSGSGSGTEFTLTISSLQSEDFAVYYCQQSYSWPLTFGGGTKLEIKR
notes: Humanized full-length IgG expressed in HEK293; For SPR it was captured from culture medium through its Fc; also called HC1 + LC1
B3: VH6 + VL6 (antibody, human IgG1, kappa, V domains shown)
VH: B2 VH
VL: B2 VL with M4L, Q37H, Y49K, A60S, E70D, Y87F
notes: Humanized full-length IgG expressed in HEK293; also called HC1 + LC2
B4: anti-PD-1 antibody VH7+VL6 (antibody, human IgG1, kappa, V domains shown)
VH: B2 VH with R44G, T78N
VL: B2 VL with M4L, Q37H, Y49K, A60S, E70D, Y87F
notes: also called HC2 + LC2
B5: VH7 + VL1 (antibody, human IgG1, kappa, V domains shown)
VH: B2 VH with R44G, T78N
VL: B2 VL
notes: Humanized full-length IgG expressed in HEK293; also called HC2 + LC1

Tests used:
[1] = molecular target: T1, PD-1 (analyte of the SPR assay of Example 3) (human, UniProt Q15116 21-167, limits assumed); test: SPR (Biacore 8K), antibody captured by anti-human Fc, PD-1 as analyte
T1 construct: also called human PD-1
T1 sequence (Q15116 21-167 limits assumed): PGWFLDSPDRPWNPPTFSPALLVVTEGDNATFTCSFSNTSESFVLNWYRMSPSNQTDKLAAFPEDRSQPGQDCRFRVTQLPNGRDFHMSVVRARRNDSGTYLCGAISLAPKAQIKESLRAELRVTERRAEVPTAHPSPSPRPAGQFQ
Experimental: Anti-human Fc gamma specific antibody (Jackson ImmunoResearch #109-005-098) was immobilized onto the sensor chip using amine coupling method. […] After equilibration, PD-1 was injected for 200 seconds (association phase) followed by the injection of running buffer for 600s (dissociation phase). Responses of reference flow cell (flow cell 1) were subtracted from those of humanized antibodies flow cells during each cycle. The surface was regenerated before the injection of other humanized antibodies. The process was repeated until all antibodies are analyzed. The off-rates of humanized antibodies were obtained from fitting the experimental data locally to 1:1 interaction model using the Biacore 8K evaluation software. The antibodies were ranked by their dissociation rate constants (off-rates, kd).

[2] = molecular target: T2, his-tagged human PD-1 recombinant protein (PD-1/6His, in-house production, extracellular domain Pro21-Gln167) (human, UniProt Q15116 21-167); test: ELISA, plate coated with human PD-1/His; human PD-1
T2 construct: range 21-167; also called human PD-1/His; not shown: 6His tag
T2 sequence (Q15116 21-167 limits assumed): as above
Experimental: (§1) MaxiSorp 96-well plates (NUNC #449824) were coated with 2 μg/mL human PD-1/His (in-house production) or cynomolgus PD-1/His protein (ACROBiosystems #PD1-C5223) in 1× PBS (50 μL/well). Plates were incubated at 4° C. overnight. Coating solution was removed and plates were washed once with 200 μL/well PBST (1× PBS containing 0.05% tween-20). Then 200 μL/well blocking buffer (1× PBS with 0.05% tween-20, 3% BSA) was added and incubated at room temperature for 1 hour. Blocking buffer was removed and plates were washed with three times with 200 μL/well PBST. […] Plates were incubated at room temperature for 2 hours. Antibodies in the wells were removed and plates were washed three times with 200 μL/well PBST. Goat anti-human IgG (H&L)-HRP secondary antibody (Jackson Immuno Research #109-035-088) was diluted 1:5000 in 1× PBS and added to each well (50 μL/well). Plates were incubated at room temperature for 1 hour. Secondary antibody was removed and plates were washed five times with 200 μL/well PBST. 50 μL/well TMB (eBioscience #85-00-4201-56) was added and plates were incubated at room temperature for several minutes. Then 50 μL/well 2N H2SO4 was added to stop the reaction. Optical density was measured at 450 nm.

[3] = molecular target: T3, chimeric PD-1 receptor on Jurkat cells (Jurkat/PD-1-CD3z/NF-luci cells) (human, UniProt Q15116 25-191; P20963 52-164, limits assumed); test: flow cytometry on human PD-1-expressing Jurkat cells
T3 construct: domain: extracellular and transmembrane domains;domain: cytoplasmic domain; also called human PD-1 expressed on Jurkat; Human PD-1-expressing Jurkat cells
T3 sequence (Q15116 other isoform, or with tags, fused parts or gaps mutant limits assumed): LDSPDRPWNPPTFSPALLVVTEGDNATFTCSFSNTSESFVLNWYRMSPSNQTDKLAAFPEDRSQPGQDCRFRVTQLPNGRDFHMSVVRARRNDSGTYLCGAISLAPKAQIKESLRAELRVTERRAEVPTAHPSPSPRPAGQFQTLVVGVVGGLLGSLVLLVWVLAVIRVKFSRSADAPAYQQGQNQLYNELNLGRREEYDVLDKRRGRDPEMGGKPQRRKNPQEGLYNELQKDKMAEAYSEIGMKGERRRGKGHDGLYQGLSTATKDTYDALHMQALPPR
Experimental: Then cells were washed once by FACS buffer (PBS with 2% FBS) and incubated with Alexa Fluor 594 AffiniPure Goat Anti-human IgG secondary antibody (Jackson ImmunoResearch #109-585-088) at 4° C. for 30 minutes. After washed once by FACS buffer, cells were resuspended in 200 μL FACS buffer. The cells after staining were analyzed by BD LSRFortessa Flow Cytometer.

[4] = molecular target: T3, chimeric PD-1 receptor on Jurkat cells …; test: cell-based or functional assay
[5] = molecular target: T4, cynomolgus PD-1/His protein (ACROBiosystems #PD1-C5223) (cynomolgus, UniProt B0LAJ3 25-170); test: ELISA, plate coated with cynomolgus PD-1/His
T4 construct: Commercial protein
T4 sequence (B0LAJ3 entry or part of it limits assumed): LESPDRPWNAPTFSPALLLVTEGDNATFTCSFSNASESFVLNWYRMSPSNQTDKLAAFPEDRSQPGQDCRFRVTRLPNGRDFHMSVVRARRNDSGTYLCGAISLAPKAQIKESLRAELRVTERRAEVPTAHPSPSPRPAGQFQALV
Experimental: as §1

| Binder | Kd [1] [nM] | koff [1] [s⁻¹] | kon [1] [M⁻¹ s⁻¹] | EC50 [2] [nM] | EC50 [3] [nM] | EC50 (nM), inhibition of luciferase signal [4] [nM] | EC50 [5] [nM] |
| --- | --- | --- | --- | --- | --- | --- | --- |
| B1 | 0.787 | 0.000163 | 207000 | – | – | – | – |
| B2 | 3.57 | 0.000404 | 113000 | – | – | – | – |
| B3 | 0.812 | 0.000127 | 156000 | – | – | – | – |
| B4 | 1.41 | 0.000218 | 154000 | 0.1 | 2.16 | 0.38 | 0.4 |
| B5 | 3.04 | 0.000317 | 104000 | – | – | – | – |
